Assay results published in paper PMC4038756 (Theranostics, 2014).
Values joined by “and” are separate entries in the source; they are usually repeats but may differ in a detail not shown here. Equal entries are not always repeated.

What was measured:
Format in all cases: in vivo, NOD/SCID mice
[1] = Small animal PET/CT imaging, H2009 tumor bearing mice; conditions: NOD/SCID, mouse, iv, total radioactivity
[2] = system: H2009 (αvβ6^+) xenografts; assay: as above; conditions: for Tumor uptake: quantitative PET, mean ± s.d.; for Tumor uptake / Tumor/Lung: n = 3; for Tumor/Lung: ratio of PET uptakes
[3] = Small animal PET/CT imaging, H460 tumor bearing mice; conditions: NOD/SCID, mouse, iv, total radioactivity
H460 (αvβ6^-) xenografts = assay: as above; conditions: H460 tumor bearing mice, quantitative PET, mean ± s.d., n = 3
[4] = H2009 tumor bearing mice, 1 h p.i.
[5] = H2009 tumor bearing mice, 4 h p.i.
[6] = H2009 tumor bearing mice, 24 h p.i.

## CC(C)C[C@H](NC(=O)[C@H](CCC(N)=O)NC(=O)[C@H](CCCNC(=N)N)NC(=O)[C@H](CC(C)C)NC(=O)[C@@H](NC(=O)[C@H](C)NC(=O)[C@H](CC(C)C)NC(=O)[C@H](CC(=O)O)NC(=O)CNC(=O)[C@@H](N)CCCNC(=N)N)[C@@H](C)O)C(=O)NCCOCCOCCOCCOCCOCCOCCOCCOCCOCCOCCOCCOCCC(=O)N[C@@H](CSC1CC(=O)N(CCNC(=O)CCC(C(=O)O)N2CCCN3CCN(CCCN(CC(=O)O)CC3)CC2)C1=O)C(N)=O (some centres unmarked) [^64Cu-M10, metal not drawn]
[1]; heart
  tissue uptake at 1 h: 1.02 ± 0.07 %ID/g
  tissue uptake at 4 h: 0.42 ± 0.06 %ID/g
  tissue uptake at 24 h: 0.16 ± 0.05 %ID/g
[1]; kidney
  tissue uptake at 1 h: 6.83 ± 0.35 %ID/g
  tissue uptake at 4 h: 6.23 ± 0.32 %ID/g
  tissue uptake at 24 h: 3.5 ± 0.36 %ID/g
[1]; liver
  tissue uptake at 1 h: 2.03 ± 0.23 %ID/g
  tissue uptake at 4 h: 1.53 ± 0.21 %ID/g
  tissue uptake at 24 h: 1.3 ± 0.1 %ID/g
[1]; lung
  tissue uptake at 1 h: 0.66 ± 0.08 %ID/g
  tissue uptake at 4 h: 0.33 ± 0.11 %ID/g
  tissue uptake at 24 h: 0.15 ± 0.04 %ID/g
[1]; muscle
  tissue uptake at 1 h: 0.3 ± 0.02 %ID/g
  tissue uptake at 4 h: 0.12 ± 0.02 %ID/g
  tissue uptake at 24 h: 0.14 ± 0.02 %ID/g
[2]; [4]
  Tumor uptake: 0.55 ± 0.17 %ID/g
  Tumor/Lung: 0.83 ± 0.18
[2]; [5]
  Tumor uptake: 0.33 ± 0.11 %ID/g
  Tumor/Lung: 1.0 ± 0.15
[2]; [6]
  Tumor uptake: 0.28 ± 0.11 %ID/g
  Tumor/Lung: 1.86 ± 0.11
[3]; heart
  tissue uptake at 1 h: 1.02 ± 0.17 %ID/g
  tissue uptake at 4 h: 0.65 ± 0.12 %ID/g
  tissue uptake at 24 h: 0.33 ± 0.03 %ID/g
[3]; kidney
  tissue uptake at 1 h: 14 ± 2.4 %ID/g
  tissue uptake at 4 h: 12.5 ± 2.33 %ID/g
  tissue uptake at 24 h: 5.97 ± 1.01 %ID/g
[3]; liver
  tissue uptake at 1 h: 0.93 ± 0.12 %ID/g
  tissue uptake at 4 h: 0.77 ± 0.06 %ID/g
  tissue uptake at 24 h: 0.43 ± 0.05 %ID/g
[3]; lung
  tissue uptake at 1 h: 0.55 ± 0.09 %ID/g
  tissue uptake at 4 h: 0.34 ± 0.07 %ID/g
  tissue uptake at 24 h: 0.18 ± 0.02 %ID/g
[3]; muscle
  tissue uptake at 1 h: 0.15 ± 0.07 %ID/g
  tissue uptake at 4 h: 0.11 ± 0.04 %ID/g
  tissue uptake at 24 h: 0.1 ± 0.03 %ID/g
H460 (αvβ6^-) xenografts; 1 h p.i.
  Tumor uptake: 0.34 ± 0.05 %ID/g
H460 (αvβ6^-) xenografts; 4 h p.i.
  Tumor uptake: 0.24 ± 0.01 %ID/g
H460 (αvβ6^-) xenografts; 24 h p.i.
  Tumor uptake: 0.19 ± 0.01 %ID/g

## CC(C)C[C@H](NC(=O)[C@H](CCC(N)=O)NC(=O)[C@H](CCCNC(=N)N)NC(=O)[C@H](CC(C)C)NC(=O)[C@@H](NC(=O)[C@H](C)NC(=O)[C@H](CC(C)C)NC(=O)[C@H](CC(=O)O)NC(=O)CNC(=O)[C@@H](N)CCCNC(=N)N)[C@@H](C)O)C(=O)NCCOCCOCCOCCOCCOCCOCCOCCOCCOCCOCCOCCOCCC(=O)N[C@@H](CSC1CC(=O)N(CCNC(=O)CCC(C(=O)O)N2CCCN3CCN(CCCN(C(CCC(=O)NCCN4C(=O)CC(SC[C@H](NC(=O)CCOCCOCCOCCOCCOCCOCCOCCOCCOCCOCCOCCOCCNC(=O)[C@H](CC(C)C)NC(=O)[C@H](CCC(N)=O)NC(=O)[C@H](CCCNC(=N)N)NC(=O)[C@H](CC(C)C)NC(=O)[C@@H](NC(=O)[C@H](C)NC(=O)[C@H](CC(C)C)NC(=O)[C@H](CC(=O)O)NC(=O)CNC(=O)[C@@H](N)CCCNC(=N)N)[C@@H](C)O)C(N)=O)C4=O)C(=O)O)CC3)CC2)C1=O)C(N)=O (some centres unmarked) [^64Cu-(M10)2, metal not drawn]
[1]; heart
  tissue uptake at 1 h: 1.56 ± 0.15 %ID/g
  tissue uptake at 4 h: 0.71 ± 0.03 %ID/g
  tissue uptake at 24 h: 0.32 ± 0.03 %ID/g
[1]; kidney
  tissue uptake at 1 h: 53.6 ± 8.68 %ID/g
  tissue uptake at 4 h: 46.2 ± 10.4 %ID/g
  tissue uptake at 24 h: 27.3 ± 7.3 %ID/g
[1]; liver
  tissue uptake at 1 h: 2.13 ± 0.73 %ID/g
  tissue uptake at 4 h: 1.9 %ID/g
  tissue uptake at 24 h: 1.26 ± 0.25 %ID/g
[1]; lung
  tissue uptake at 1 h: 1.66 ± 0.15 %ID/g
  tissue uptake at 4 h: 0.72 ± 0.02 %ID/g
  tissue uptake at 24 h: 0.4 ± 0.03 %ID/g
[1]; muscle
  tissue uptake at 1 h: 0.87 ± 0.04 %ID/g
  tissue uptake at 4 h: 0.3 ± 0.02 %ID/g
  tissue uptake at 24 h: 0.25 ± 0.05 %ID/g
[2]; H2009 tumor bearing mice, 1 h, 4 h, 24 h p.i.
  increase of kidney uptake as compared to 64Cu-M10: ~6 fold
[2]; [4]
  Tumor uptake: 1.6 ± 0.20 %ID/g
  Tumor/Lung: 1.0 ± 0.25
[2]; [5]
  Tumor uptake: 0.85 ± 0.19 %ID/g
  Tumor/Lung: 1.2 ± 0.19
[2]; [6]
  Tumor uptake: 0.79 ± 0.03 %ID/g
  Tumor/Lung: 1.9 ± 0.04
[2]; H2009 tumor, all three time points (1 h, 4 h, 24 h p.i.)
  tumor uptake increase as compared to 64Cu-M10: ~3 fold
[3]; heart
  tissue uptake at 1 h: 1.7 %ID/g
  tissue uptake at 4 h: 1.25 ± 0.07 %ID/g
  tissue uptake at 24 h: 0.83 ± 0.17 %ID/g
[3]; kidney
  tissue uptake at 1 h: 85.4 ± 17.5 %ID/g
  tissue uptake at 4 h: 92.9 ± 11.3 %ID/g
  tissue uptake at 24 h: 68.9 ± 8.13 %ID/g
[3]; liver
  tissue uptake at 1 h: 5.45 ± 0.49 %ID/g
  tissue uptake at 4 h: 4.8 ± 0.14 %ID/g
  tissue uptake at 24 h: 3.25 ± 0.21 %ID/g
[3]; lung
  tissue uptake at 1 h: 1.5 ± 0.14 %ID/g
  tissue uptake at 4 h: 1.15 ± 0.07 %ID/g
  tissue uptake at 24 h: 0.77 ± 0.01 %ID/g
[3]; muscle
  tissue uptake at 1 h: 0.45 ± 0.18 %ID/g
  tissue uptake at 4 h: 0.31 ± 0.06 %ID/g
  tissue uptake at 24 h: 0.38 ± 0.08 %ID/g
H460 (αvβ6^-) xenografts; 1 h p.i.
  Tumor uptake: 0.71 ± 0.05 %ID/g
H460 (αvβ6^-) xenografts; 4 h p.i.
  Tumor uptake: 0.83 ± 0.04 %ID/g
H460 (αvβ6^-) xenografts; 24 h p.i.
  Tumor uptake: 0.53 ± 0.17 %ID/g

## N=C(N)NCCC[C@@H]1NC(=O)[C@H](CCCCNC(=O)CCC(C(=O)O)N2CCCN3CCN(CCCN(C(CCC(=O)NCCCC[C@@H]4NC(=O)[C@@H](Cc5ccc(O)cc5)NC(=O)[C@H](CC(=O)O)NC(=O)CNC(=O)[C@H](CCCNC(=N)N)NC4=O)C(=O)O)CC3)CC2)NC(=O)[C@@H](Cc2ccc(O)cc2)NC(=O)[C@H](CC(=O)O)NC(=O)CNC1=O (some centres unmarked) [^64Cu-CB-TE2A-(c(RGDyK))2, metal not drawn, reference compound]
[1]; heart
  tissue uptake at 1 h: 1.67 ± 0.13 %ID/g
  tissue uptake at 4 h: 0.58 ± 0.13 %ID/g
  tissue uptake at 24 h: 0.4 ± 0.12 %ID/g
[1]; kidney
  tissue uptake at 1 h: 3.43 ± 0.25 %ID/g
  tissue uptake at 4 h: 1.35 ± 0.54 %ID/g
  tissue uptake at 24 h: 0.93 ± 0.09 %ID/g
[1]; liver
  tissue uptake at 1 h: 2.56 ± 0.41 %ID/g
  tissue uptake at 4 h: 1.97 ± 0.19 %ID/g
  tissue uptake at 24 h: 1.65 ± 0.35 %ID/g
[1]; lung
  tissue uptake at 1 h: 0.7 ± 0.05 %ID/g
  tissue uptake at 4 h: 0.61 ± 0.17 %ID/g
  tissue uptake at 24 h: 0.39 ± 0.18 %ID/g
[1]; muscle
  tissue uptake at 1 h: 0.41 ± 0.04 %ID/g
  tissue uptake at 4 h: 0.26 ± 0.12 %ID/g
  tissue uptake at 24 h: 0.24 ± 0.08 %ID/g
[2]; [4]
  Tumor uptake: 1.58 ± 0.13 %ID/g
[2]; [5]
  Tumor uptake: 1.07 ± 0.21 %ID/g
[2]; [6]
  Tumor uptake: 0.7 %ID/g and 0.70 ± 0.29 %ID/g
[3]; heart
  tissue uptake at 1 h: 1.9 ± 0.72 %ID/g
  tissue uptake at 4 h: 0.54 ± 0.26 %ID/g
  tissue uptake at 24 h: 0.42 ± 0.05 %ID/g
[3]; kidney
  tissue uptake at 1 h: 4.33 ± 1 %ID/g
  tissue uptake at 4 h: 1.8 ± 0.57 %ID/g
  tissue uptake at 24 h: 1.2 ± 0.14 %ID/g
[3]; liver
  tissue uptake at 1 h: 2.13 ± 0.25 %ID/g
  tissue uptake at 4 h: 1.61 ± 0.41 %ID/g
  tissue uptake at 24 h: 2.05 ± 0.07 %ID/g
[3]; lung
  tissue uptake at 1 h: 0.68 ± 0.02 %ID/g
  tissue uptake at 4 h: 0.48 ± 0.06 %ID/g
  tissue uptake at 24 h: 0.3 ± 0.01 %ID/g
[3]; muscle
  tissue uptake at 1 h: 0.39 ± 0.06 %ID/g
  tissue uptake at 4 h: 0.31 ± 0.04 %ID/g
  tissue uptake at 24 h: 0.27 ± 0.03 %ID/g
H460 (αvβ6^-) xenografts; 1 h p.i.
  Tumor uptake: 1.64 ± 0.20 %ID/g
H460 (αvβ6^-) xenografts; 4 h p.i.
  Tumor uptake: 1.09 ± 0.24 %ID/g
H460 (αvβ6^-) xenografts; 24 h p.i.
  Tumor uptake: 0.7 %ID/g and 0.72 ± 0.10 %ID/g
